Results: publication PMC3470471 (Circulation research, 2012)

Biological target: the molecule itself
Assay: cross-linking

B1: myosin light chain 1 (rat cardiac myofibrils) (natural protein)
chain: not shown
stoichiometry N: 2
